Numbering of substitutions follows the chain as printed.
T1: pN-TALER IV-1-EE2 (GinL7C7-EE2-TALE13) (synthetic)
T1 chain: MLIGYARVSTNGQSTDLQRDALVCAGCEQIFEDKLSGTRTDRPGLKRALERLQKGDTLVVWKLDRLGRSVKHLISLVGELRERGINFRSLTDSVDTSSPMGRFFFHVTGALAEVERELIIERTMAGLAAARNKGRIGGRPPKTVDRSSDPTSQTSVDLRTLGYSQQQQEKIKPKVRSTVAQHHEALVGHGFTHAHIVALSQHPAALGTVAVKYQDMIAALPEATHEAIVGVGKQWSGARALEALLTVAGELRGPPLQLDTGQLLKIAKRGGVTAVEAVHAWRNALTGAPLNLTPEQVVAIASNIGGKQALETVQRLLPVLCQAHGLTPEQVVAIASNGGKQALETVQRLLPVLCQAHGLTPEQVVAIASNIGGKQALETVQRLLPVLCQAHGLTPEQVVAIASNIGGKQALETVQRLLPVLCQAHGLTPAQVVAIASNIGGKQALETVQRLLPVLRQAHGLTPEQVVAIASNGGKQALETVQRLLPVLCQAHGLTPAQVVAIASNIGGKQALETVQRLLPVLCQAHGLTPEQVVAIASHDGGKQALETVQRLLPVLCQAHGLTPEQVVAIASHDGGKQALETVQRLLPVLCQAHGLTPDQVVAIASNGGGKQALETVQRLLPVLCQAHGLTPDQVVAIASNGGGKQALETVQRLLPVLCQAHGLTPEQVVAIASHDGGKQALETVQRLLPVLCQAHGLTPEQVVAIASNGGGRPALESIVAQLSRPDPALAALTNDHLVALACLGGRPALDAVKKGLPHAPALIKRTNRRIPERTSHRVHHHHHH

T2: pN-TALER N3.2 (synthetic)
T2 chain: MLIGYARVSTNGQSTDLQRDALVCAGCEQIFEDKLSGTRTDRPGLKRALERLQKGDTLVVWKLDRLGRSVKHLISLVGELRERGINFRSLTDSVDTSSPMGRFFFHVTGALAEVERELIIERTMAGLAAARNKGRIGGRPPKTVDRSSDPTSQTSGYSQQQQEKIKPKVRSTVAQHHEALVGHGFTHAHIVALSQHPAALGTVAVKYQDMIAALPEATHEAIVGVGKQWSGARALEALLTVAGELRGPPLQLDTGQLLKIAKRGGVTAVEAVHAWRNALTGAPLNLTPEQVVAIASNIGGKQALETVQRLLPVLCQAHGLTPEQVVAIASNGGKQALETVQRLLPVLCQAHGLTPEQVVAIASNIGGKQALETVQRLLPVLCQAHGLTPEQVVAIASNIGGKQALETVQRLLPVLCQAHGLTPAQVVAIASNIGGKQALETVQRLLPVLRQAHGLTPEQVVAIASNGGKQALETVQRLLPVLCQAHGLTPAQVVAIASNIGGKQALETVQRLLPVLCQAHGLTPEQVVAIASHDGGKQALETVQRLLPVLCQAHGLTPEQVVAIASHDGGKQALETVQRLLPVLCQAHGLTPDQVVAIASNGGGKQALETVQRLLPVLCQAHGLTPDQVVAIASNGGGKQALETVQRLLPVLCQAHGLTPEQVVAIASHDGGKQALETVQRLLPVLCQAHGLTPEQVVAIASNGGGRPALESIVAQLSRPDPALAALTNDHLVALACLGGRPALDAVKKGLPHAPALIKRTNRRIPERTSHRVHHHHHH

T3: sN-TALER IV-12 (synthetic)
T3 chain: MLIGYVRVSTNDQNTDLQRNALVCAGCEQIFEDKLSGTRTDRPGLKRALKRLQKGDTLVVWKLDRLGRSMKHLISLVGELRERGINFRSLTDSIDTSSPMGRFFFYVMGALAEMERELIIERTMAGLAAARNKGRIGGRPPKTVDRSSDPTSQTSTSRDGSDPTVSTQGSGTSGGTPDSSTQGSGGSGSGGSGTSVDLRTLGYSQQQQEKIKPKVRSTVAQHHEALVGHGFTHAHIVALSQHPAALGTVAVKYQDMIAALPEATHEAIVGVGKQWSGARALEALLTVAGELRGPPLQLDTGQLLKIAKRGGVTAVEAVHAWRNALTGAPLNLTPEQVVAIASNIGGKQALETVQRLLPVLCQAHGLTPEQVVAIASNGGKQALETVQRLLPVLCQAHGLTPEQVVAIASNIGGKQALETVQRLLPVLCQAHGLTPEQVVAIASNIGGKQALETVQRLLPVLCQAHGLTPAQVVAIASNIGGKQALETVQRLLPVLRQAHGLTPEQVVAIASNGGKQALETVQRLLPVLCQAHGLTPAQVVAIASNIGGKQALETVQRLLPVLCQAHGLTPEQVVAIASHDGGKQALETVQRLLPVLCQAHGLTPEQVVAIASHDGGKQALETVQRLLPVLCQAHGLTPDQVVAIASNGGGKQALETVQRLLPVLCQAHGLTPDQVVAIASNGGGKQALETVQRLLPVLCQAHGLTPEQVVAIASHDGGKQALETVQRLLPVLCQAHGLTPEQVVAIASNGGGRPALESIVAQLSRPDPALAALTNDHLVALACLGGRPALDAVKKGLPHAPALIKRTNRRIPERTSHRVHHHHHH

T4: pN-TALER IV-12 (synthetic)
T4 chain: T3 chain with V6A, D12G, N14S, N20D, K50E, M70V, I94V, Y106H, M108T, M114V

B1: Gin20TALE+5 (dsDNA)
DNA 1: AGAAGGTATTTATATATTATCCAAAACCATGGTTTACAGGACTATATAAATACCTTCT
DNA 2: AGAAGGTATTTATATAGTCCTGTAAACCATGGTTTTGGATAATATATAAATACCTTCT
B2: Gin20TALE+15 (dsDNA)
DNA 1: AGAAGGTATTTATATAGGCACACATGTTATCCAAAACCATGGTTTACAGGACGTTCACACGGTATATAAATACCTTCT
DNA 2: AGAAGGTATTTATATACCGTGTGAACGTCCTGTAAACCATGGTTTTGGATAACATGTGTGCCTATATAAATACCTTCT

What was measured:
Assay in all cases: cell_activity; E. coli
[1] = target: T1, pN-TALER IV-1-EE2 (GinL7C7-EE2-TALE13); conditions: tags: 6-His
Description: (§1) To test for recombination, E. coli DH5alpha cells were co-transformed with different combinations of TALER expression construct and TALER reporter construct pairs (Tables 6 and 7). The N-TALER expression and reporter constructs were in an approximate 1:1 mass ratio during the transformation. The co-transformed bacteria were plated on media with chloramphenicol, kanamycin, and X-gal then incubated at 37° C. for 18 to 36 hours. Control samples consisted of transformations using the reporter construct alone. Control transformants were similarly plated. The bacterial transformation protocol was either heat shock or electroporation per standard molecular biology techniques.
Two additional N-TALERs, based on N-TALER IV-1, were constructed wherein the GinH106Y recombinase catalytic domain was replaced with either the GinL7C7-EE2 catalytic domain or the GinL7C7-EE3 permissive recombinase catalytic domain. These N-TALERs were labeled pN-TALER IV-1-EE2 (SEQ ID NO:41) and pN-TALER IV-1-EE3 (SEQ ID NO:45), respectively. pN-TALER IV-1-EE2 was tested in combination with seventeen N-TALER reporter constructs and pN-TALER IV-1-EE3 was tested with three reporter constructs (Table 10).

pN-TALER N3.2 = target: T2, pN-TALER N3.2
Description: The co-transformed bacteria were plated on media with chloramphenicol, kanamycin, and X-gal then incubated at 37° C. for 18 to 36 hours. Control samples consisted of transformations using the reporter construct alone. Control transformants were similarly plated. The bacterial transformation protocol was either heat shock or electroporation per standard molecular biology techniques.
For each of these N-TALER chimera expression constructs, from one to three independent clones were selected for plasmid purification. These N-TALER chimera expression constructs were co-transformed with five of the N-TALER reporter constructs, as indicated in Table 15. […] In contrast to the result for pN-TALER N4.2.2, the chimera sN-TALER N4.2.2, with the same truncation point but a specific recombinase catalytic domain, reporters with 20, 24, or 40 bp of TALER central sequence length were efficiently recombined (score of 1) while reporters with 30 or 50 bp of TALER central sequence length were not recombined (score of 5). For the chimera sN-TALER N4.2, reporters with 20, 24, or 40 bp of TALER central sequence length were efficiently recombined (score of 1); the reporter with 30 bp of TALER central sequence length was poorly recombined (score of 3); and the reporter with 50 bp of TALER central sequence length was not recombined (score of 5). For the chimera pN-TALER N4.2, the recombination efficiency on the reporters tested varied from intermediate (scores of 3 and 4) to none (score of 5). […] In contrast to the result for sN-TALER N3.2, the chimera pN-TALER N3.2, with the same truncation point but a permissive recombinase catalytic domain, recombination efficiency on the reporters tested varied from efficient (scores of 1.5, 2, and 3) to none (score of 5). For both chimeras sN-TALER V.2 and pN-TALER V.2, there was efficient recombination (scores of 1, 1.5, and 2) of the 5 N-TALER reporter constructs tested.

sN-TALER IV-12 = target: T3, sN-TALER IV-12
Description: as §1
(§2) The N-TALER expression constructs representing the N-TALER chimeras with varying linker lengths were co-transformed with N-TALER reporter constructs with TALER central sequence lengths of 18, 20, 24, 30, 40, and 50 bp (Table 13). […] Recombination did occur, but was less efficient with the pN-TALER IV-14 (linker length of 71 amino acids) with each of the N-TALER reporters tested.

pN-TALER IV-12 = target: T4, pN-TALER IV-12
Description: as §1, §2

| Binder | activity [1] [score] | activity (pN-TALER N3.2) [score] | activity (sN-TALER IV-12) [score] | activity (pN-TALER IV-12) [score] |
| --- | --- | --- | --- | --- |
| B1 | 1 | 1.5 | – | – |
| B2 | – | – | 1 | 1 |

Source: US20140193915, “COMPOSITIONS AND METHODS FOR CUSTOM SITE-SPECIFIC DNA RECOMBINASES” (Monsanto Technology, LLC, published 2014)
